Measurements taken from the supplement of paper PMC6757056.
± gives the standard deviation of the averaged measurements.

B1: library; a variant is named by its letters at N, in order (parent)
chain: GCUGUCACCGGUGUAUUACCCUAGUGGUCGACCGGUCUGAUGAGUCUNNNNNNAGACGAAACAGC

Assays:
hypoxanthine [1] = variants of: B1; assay: normalized RNA/DNA level with ligand (relative to sTRSVctl = 100) (log10 (% of sTRSVctl)); ligand: hypoxanthine (xanthine aptamer); higher = less ribozyme self-cleavage, higher mRNA level; conditions: ligand concentration (+) RNA-Seq: 5 mM, HEK293T, reporter: mCherry (pCS4076), ligand present: yes
Outline: (§1)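 Only sequences with at least 100 DNA reads were analyzed, from HEK293T cells transfected with 4 µg per 6-well well of ribozyme switch library plasmids 72 h before RNA extraction with EDTA. Any ligand was added 1 h before transfection. RNA level was defined as RNA over DNA reads, normalized to a spiked-in non-cleaving sequence or to the top sequences, then scaled and log-transformed. The top set was 25 sequences, and the scaling was ×100 followed by log10.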

hypoxanthine [2] = variants of: B1; assay: normalized RNA/DNA level without ligand (relative to sTRSVctl = 100) (log10 (% of sTRSVctl)); ligand: hypoxanthine (xanthine aptamer); higher = less ribozyme self-cleavage, higher mRNA level; conditions: HEK293T, reporter: mCherry (pCS4076), ligand present: no
Outline: as §1

| Variant | normalized RNA/DNA level with ligand (log10) (hypoxanthine [1]) | normalized RNA/DNA level without ligand (log10) (hypoxanthine [2]) |
| --- | --- | --- |
| CGAACU | 1.93 ± 0.056 | 1.79 ± 0.018 |
| CGAACA | 1.94 ± 0.011 | 1.76 ± 0.015 |
| CGAACG | 1.96 ± 0.038 | 1.8 ± 0.035 |
| CCUGCU | 2.02 ± 0.049 | 1.98 ± 0.08 |
| CCUGCC | 2.04 ± 0.026 | 2.01 ± 0.023 |
| UGAGAC | 1.89 ± 0.024 | 1.83 ± 0.057 |
| CCUUUU | 1.966 ± 0.019 | 1.892 ± 0.018 |
| CCUUUG | 1.96 ± 0.09 | 1.81 ± 0.076 |
| CCUUUC | 2 ± 0.1 | 1.98 ± 0.046 |
| CCUUUA | 1.948 ± 0.019 | 1.84 ± 0.035 |
| UGAGUA | 1.902 ± 0.015 | 1.81 ± 0.091 |
| UGAGUU | 1.92 ± 0.039 | 1.85 ± 0.042 |
| CGAUGC | 1.9 ± 0.07 | 1.829 ± 0.0038 |
| CGAUGU | 1.98 ± 0.04 | 1.878 ± 0.016 |
| CGAUGA | 1.93 ± 0.018 | 1.79 ± 0.057 |
| AGAAUC | 1.94 ± 0.086 | 1.91 ± 0.048 |
| AGAAUU | 1.926 ± 0.017 | 1.86 ± 0.025 |
| AGAAUA | 1.92 ± 0.012 | 1.77 ± 0.03 |
| AGACCU | 1.92 ± 0.023 | 1.88 ± 0.044 |
| AGACCG | 1.925 ± 0.004 | 1.75 ± 0.067 |
| AGACCA | 1.93 ± 0.046 | 1.85 ± 0.015 |
| CGAGGA | 1.975 ± 0.0031 | 1.713 ± 0.011 |
| CGAGGC | 1.97 ± 0.024 | 1.89 ± 0.0058 |
| GCUGGA | 1.904 ± 0.011 | 1.8 ± 0.074 |
| GCUGGU | 1.96 ± 0.034 | 1.824 ± 0.013 |
| UGAAGC | 1.925 ± 0.0097 | 1.807 ± 0.01 |
| UGAAGG | 1.83 ± 0.055 | 1.48 ± 0.062 |
| GGACCU | 1.98 ± 0.056 | 1.9838 ± 0.0012 |
